Measured values from patent US20240116985A1 (published 2024).
Starred links: 1 amine or outer side, 2 acyl side, 3 side chain; linkers in the order of their positions; H or OH if unused. Positions of bridges follow the written chain, without caps; N, C: chain ends. Non-standard residues stand in square brackets, D forms with d. Primed or numbered codes have the meaning given here. *: point of attachment. PyrS2″ = (S)-3-amino-1-((pent-4-en-1-yloxy)carbonyl)pyrrolidine-3-carboxylic acid (stapling residue), C=CCCCOC(=O)N1CC[C@@](N[*:1])(C(=O)[*:2])C1; HypBzEs3OAllyl = (2R,4S)-4-((3-(allyloxy)benzoyl)oxy)pyrrolidine-2-carboxylic acid, C=CCOc1cccc(C(=O)O[C@H]2C[C@H](C(=O)[*:2])N([*:1])C2)c1; B5(17) = 2,2-bis(4-pentenyl)glycine = 2-amino-2-(pent-4-en-1-yl)hept-6-enoic acid, stitching residue, C=CCCCC(CCCC=C)(N[*:1])C(=O)[*:2]; B5(4) = 2,2-bis(4-pentenyl)glycine = 2-amino-2-(pent-4-en-1-yl)hept-6-enoic acid (stitching residue), C=CCCCC(CCCC=C)(N[*:1])C(=O)[*:2]; TfeGA = (S)-2-amino-3-((carboxymethyl)(2,2,2-trifluoroethyl)amino)propanoic acid, O=C([C@H](CN(CC(=O)[*:3])CC(F)(F)F)N[*:1])[*:2]; (2OxoPpz)GlnR = Glu side chain amide with 2-oxopiperazine (3-oxopiperazin-1-yl), O=C1CN(C(=O)CC[C@H](N[*:1])C(=O)[*:2])CCN1; (EtSO2Ppz)GlnR = Glu side chain amide with 4-(ethylsulfonyl)piperazine, CCS(=O)(=O)N1CCN(C(=O)CC[C@H](N[*:1])C(=O)[*:2])CC1; (bismethoxyethylamine)GlnR″ = N5,N5-bis(2-methoxyethyl)-L-glutamine, COCCN(CCOC)C(=O)CC[C@H](N[*:1])C(=O)[*:2]; B5(3) = 2,2-bis(4-pentenyl)glycine (stitching residue), C=CCCCC(CCCC=C)(N[*:1])C(=O)[*:2]; Phe(3-COOH) = N[C@@H](Cc1cccc(C(=O)O)c1)C(=O)O; 2F3MeF = Cc1cccc(C[C@H](N[*:1])C(=O)[*:2])c1F; Phe(2-Cl) = N[C@@H](Cc1ccccc1Cl)C(=O)O; 1Nal = N[C@@H](Cc1cccc2ccccc12)C(=O)O; Bta = N[C@@H](Cc1csc2ccccc12)C(=O)O; αAllylPro = C=CC[C@@]1(C(=O)O)CCCN1; tBuAla = CC(C)(C)C[C@H](N)C(=O)O; 2Pal = N[C@@H](Cc1ccccn1)C(=O)O; 3Pal = N[C@@H](Cc1cccnc1)C(=O)O; 3Thi = N[C@@H](Cc1ccsc1)C(=O)O; S8 = C=CCCCCCC[C@](C)(N)C(=O)O; PyrS2(4) = not defined here; hSer = N[C@@H](CCO)C(=O)O; Moc = COC(=O)*

T1: Bcat-Halo (UniProt P35222 1-781)
T1 sequence (looked up): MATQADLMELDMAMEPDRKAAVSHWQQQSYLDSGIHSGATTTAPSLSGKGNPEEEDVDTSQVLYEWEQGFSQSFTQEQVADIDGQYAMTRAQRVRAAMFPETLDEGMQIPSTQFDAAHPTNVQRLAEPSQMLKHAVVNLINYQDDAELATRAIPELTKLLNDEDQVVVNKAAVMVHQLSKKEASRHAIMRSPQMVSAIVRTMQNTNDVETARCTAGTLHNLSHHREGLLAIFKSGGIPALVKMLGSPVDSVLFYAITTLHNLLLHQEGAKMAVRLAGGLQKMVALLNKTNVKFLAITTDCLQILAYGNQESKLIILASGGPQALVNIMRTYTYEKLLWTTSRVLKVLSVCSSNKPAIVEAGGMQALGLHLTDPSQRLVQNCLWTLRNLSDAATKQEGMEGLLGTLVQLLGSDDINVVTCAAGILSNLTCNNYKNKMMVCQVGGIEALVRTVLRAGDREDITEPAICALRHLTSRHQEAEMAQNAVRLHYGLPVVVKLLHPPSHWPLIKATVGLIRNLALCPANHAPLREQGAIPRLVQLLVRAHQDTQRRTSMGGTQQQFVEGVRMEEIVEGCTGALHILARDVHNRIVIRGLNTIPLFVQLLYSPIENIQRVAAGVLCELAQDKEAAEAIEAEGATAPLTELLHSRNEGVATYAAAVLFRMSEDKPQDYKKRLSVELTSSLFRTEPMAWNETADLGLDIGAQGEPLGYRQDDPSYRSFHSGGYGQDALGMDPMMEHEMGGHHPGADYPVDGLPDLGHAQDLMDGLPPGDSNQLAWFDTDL

T2: beta-catenin, full-length (Uniprot ID P35222) (Homo sapiens (Human), UniProt P35222 2-781)
T2 construct: tags are not described; also called bCat; B-Catenin
T2 sequence: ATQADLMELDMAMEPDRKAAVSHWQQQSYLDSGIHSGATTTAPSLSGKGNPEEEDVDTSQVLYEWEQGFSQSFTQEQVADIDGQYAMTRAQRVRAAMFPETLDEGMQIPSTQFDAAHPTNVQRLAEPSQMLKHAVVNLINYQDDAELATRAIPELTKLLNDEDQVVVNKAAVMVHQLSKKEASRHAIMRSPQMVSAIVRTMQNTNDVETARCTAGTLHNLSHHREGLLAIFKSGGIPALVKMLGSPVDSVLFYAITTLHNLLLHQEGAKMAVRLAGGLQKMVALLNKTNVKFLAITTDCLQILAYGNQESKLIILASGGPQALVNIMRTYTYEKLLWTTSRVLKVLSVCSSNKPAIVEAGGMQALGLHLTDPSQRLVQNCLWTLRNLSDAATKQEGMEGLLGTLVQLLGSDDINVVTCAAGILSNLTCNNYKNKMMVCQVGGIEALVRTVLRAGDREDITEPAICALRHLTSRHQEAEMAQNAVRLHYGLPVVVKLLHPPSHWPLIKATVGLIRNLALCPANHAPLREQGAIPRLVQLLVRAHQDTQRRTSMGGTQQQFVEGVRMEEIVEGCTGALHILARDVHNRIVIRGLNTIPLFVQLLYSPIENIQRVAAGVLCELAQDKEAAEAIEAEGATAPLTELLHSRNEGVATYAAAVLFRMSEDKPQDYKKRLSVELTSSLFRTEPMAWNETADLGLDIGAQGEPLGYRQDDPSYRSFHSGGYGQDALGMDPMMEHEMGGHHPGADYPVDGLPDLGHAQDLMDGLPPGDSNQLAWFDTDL

T3: beta-catenin in DLD1 TCF/LEF luciferase reporter cells (UniProt P35222 1-781)
T3 sequence (looked up): T1 sequence (looked up)

B1: I-2316 (peptide)
peptide: Ac-[αAllylPro]D[tBuAla][B5(4)]D[Phe(3-COOH)][(TfePpz)GlnR]AFL[PyrS2(4)][2F3MeF][Bta]A-NH2
modifications: staple 1-4, 4-11; reading uncertain; also: printed as Ac-PL3-Asp-Npg-B5-Asp-3COOHF-[TfePpz]GlnR-Ala-Phe-Leu-PyrS2-2F3MeF-BztA-Ala-NH2
B2: I-289: Ac-PL3-Asp-Ala-B5-Asp-Asp-Ala-Ala-Phe-Val-S8-Phe-Trp-NH2 (peptide)
peptide: XDAXDDAAFVXFW
modifications: not fully specified; N-terminal Ac; PL3 at 1, B5 at 4, S8 at 11 (olefin-metathesis staples 1-4 and 4-11); C-terminal amide
notes: Stapled (stitched) peptide
B3: I-290: Ac-PL3-Asp-Ala-B5-Asp-Asp-Ala-Ala-Phe-Val-S8-Phe-Trp-NH2 (peptide)
peptide: XDAXDDAAFVXFW
modifications: not fully specified; N-terminal Ac; PL3 at 1, B5 at 4, S8 at 11 (olefin-metathesis staples 1-4 and 4-11); C-terminal amide
notes: Stapled (stitched) peptide

biological target: T1, Bcat-Halo; test: cell-based or functional assay

Row | NanoBRET Abs IC50 [µM] | Binder
1 | 1.8 | Ac-[αAllylPro]D[tBuAla][B5(4)]D[Phe(3-COOH)][(bismethoxyethylamine)GlnR″]AFL[PyrS2″][2F3MeF][Bta]A-NH2 (staple 1-4, 4-11) [I-2322]
2 | 1.6 | B1
3 | 14.8 | Moc-[αAllylPro]D[tBuAla][B5(3)]D[Phe(3-COOH)]AAFL[PyrS2″][Phe(2-Cl)][Bta]A-NH2 (staple 1-4, 4-11) [I-2324]
4 | > 20 | Ac-[HypBzEs3OAllyl]D[tBuAla][B5(3)]D[TfeGA]AAFL[PyrS2″][3Thi][Bta]Q-NH2 (staple 1-4, 4-11; also: staple -CH=CH- reduced to -CH2-CH2-) [I-2328]
5 | 1.8 | Ac-[αAllylPro]D[tBuAla][B5(4)]D[Phe(3-COOH)][(2OxoPpz)GlnR]AFL[PyrS2″][2F3MeF][Bta]A-NH2 (staple 1-4, 4-11) [I-2318]
6 | 1.7 | Ac-[αAllylPro]D[tBuAla][B5(4)]D[Phe(3-COOH)][(EtSO2Ppz)GlnR]AFL[PyrS2″][2F3MeF][Bta]A-NH2 (staple 1-4, 4-11) [I-2321]

biological target: T2, beta-catenin, full-length (Uniprot ID …); test: fluorescence polarization competition, displacement of 5FAM-TCF4 10-53 from full-length beta-catenin
Procedure: The plate was incubated protected from light for 60 minutes at 20° C. prior to read. Reads were performed on a CLARIOstar plate reader (BMG Labtech) in duplicate, and data were fitted to a 1:1 binding model with hill slope using an in-house script. All provided concentrations are final concentrations.

Row | IC50 [µM] | Binder
7 | 5 | Ac-[αAllylPro]DA[B5(17)]D[2Pal]AAFV[S8]FWQ-NH2 (staple 1-4, 4-11, Stapled (stitched) peptide) [I-270: Ac-PL3-Asp-Ala-B5-Asp-2PyrA-Ala-Ala-Phe-Val-S8-Phe-Trp-Gln-NH2]
8 | 5 | B2
9 | 5 | Ac-[αAllylPro]DA[B5(4)]DDAAFV[S8][1Nal]WQ-NH2 (staple 1-4, 4-11; also: earlier-eluting HPLC staple isomer, Stapled (stitched) peptide) [I-275: Ac-PL3-Asp-Ala-B5-Asp-Asp-Ala-Ala-Phe-Val-S8-1NapA-Trp-Gln-NH2]
10 | 3.29 | B3
11 | 3.43 | Ac-[αAllylPro]DA[B5(4)]DDAAFV[S8][1Nal]WQ-NH2 (staple 1-4, 4-11; also: later-eluting HPLC staple isomer, Stapled (stitched) peptide) [I-276: Ac-PL3-Asp-Ala-B5-Asp-Asp-Ala-Ala-Phe-Val-S8-1NapA-Trp-Gln-NH2]
12 | 5 | Ac-[αAllylPro]DA[B5(17)]D[3Pal]AAFV[S8]FWQ-NH2 (staple 1-4, 4-11, Stapled (stitched) peptide) [I-271: Ac-PL3-Asp-Ala-B5-Asp-3PyrA-Ala-Ala-Phe-Val-S8-Phe-Trp-Gln-NH2]

biological target: T3, beta-catenin in DLD1 TCF/LEF luciferase …; test: cell-based or functional assay

Row | DLD1 reporter assay Abs IC50 [µM] | Binder
13 | 8 | Ac-[αAllylPro]D[tBuAla][B5(3)]D[TfeGA]AAF[hSer][S8][Phe(2-Cl)][Bta][hSer]-NH2 (staple 1-4, 4-11) [I-1000]
14 | 11.1 | Ac-[αAllylPro]D[tBuAla][B5(3)]D[TfeGA]AAFS[S8][Phe(2-Cl)][Bta][hSer]-NH2 (staple 1-4, 4-11; also: later eluting isomer) [I-999]
